Experimental data as given in patent US20220143136A1, “USE OF ANNEXINS IN PREVENTING AND TREATING MUSCLE MEMBRANE INJURY” (NORTHWESTERN UNIVERSITY, priority 2018, published 2022).
Entries after “also recorded” stand apart in the source; their conditions may differ.

Tested on: Anxa6^em1(GFP) myofibers
Assay: Laser injury of Anxa6em1(GFP) myofibers pretreated with recombinant annexin A6
Type: cell-based, mouse
Details: 10-40 μg/ml recombinant protein pretreatment vs control
Description: Myofiber isolation. Flexor digitorum brevis (FDB) fibers were isolated with methods that were described previously in (Demonbreun and McNally, 2015; Demonbreun et al., 2016b; DiFranco et al., 2009). Briefly, fibers were dissociated in 0.2% BSA plus collagenase type II (Cat #17101, Thermo Fisher Scientific, Waltham, Mass.) for 60 minutes at 37 degrees in 10% CO2. Fibers were then moved to Ringers solution and placed on MatTek confocal microscopy dishes (Cat #P35G-1.5-14-C, MatTek, Ashland Mass.).
Multiphoton laser injury and imaging. Isolated fibers were subjected to laser-induced damage at room temperature using the Nikon A1R-MP multiphoton microscope. Imaging was performed using a 25×1.1 NA objective directed by the NIS-Elements AR imaging software. Green fluorescence protein (GFP) and FM 4-64 were excited using a 920 nm wavelength laser and emission wavelengths of 575 nm and 629 nm were collected respectively. […] Fluorescence intensity and cap area were measured using Fiji (NIH).
For recombinant protein studies, myofibers were isolated from mice as described above. […] Cap size was assessed from acquired images in FIJI. […] Images were acquired and quantitated as described above. FM 4-64 fluorescence at endpoint was measured using FIJI.

B1: recombinant annexin A6: recombinant human annexin A6 protein with C-terminal HIS tag (5186-A6-050, R&D systems); mouse protein from Northwestern core in one cohort (protein, UniProt P08133 2-673, looked up)
Annexin A6: AKPAQGAKYRGSIHDFPGFDPNQDAEALYTAMKGFGSDKEAILDIITSRSNRQRQEVCQSYKSLYGKDLIADLKYELTGKFERLIVGLMRPPAYCDAKEIKDAISGIGTDEKCLIEILASRTNEQMHQLVAAYKDAYERDLEADIIGDTSGHFQKMLVVLLQGTREEDDVVSEDLVQQDVQDLYEAGELKWGTDEAQFIYILGNRSKQHLRLVFDEYLKTTGKPIEASIRGELSGDFEKLMLAVVKCIRSTPEYFAERLFKAMKGLGTRDNTLIRIMVSRSELDMLDIREIFRTKYEKSLYSMIKNDTSGEYKKTLLKLSGGDDDAAGQFFPEAAQVAYQMWELSAVARVELKGTVRPANDFNPDADAKALRKAMKGLGTDEDTIIDIITHRSNVQRQQIRQTFKSHFGRDLMTDLKSEISGDLARLILGLMMPPAHYDAKQLKKAMEGAGTDEKALIEILATRTNAEIRAINEAYKEDYHKSLEDALSSDTSGHFRRILISLATGHREEGGENLDQAREDAQVAAEILEIADTPSGDKTSLETRFMTILCTRSYPHLRRVFQEFIKMTNYDVEHTIKKEMSGDVRDAFVAIVQSVKNKPLFFADKLYKSMKGAGTDEKTLTRIMVSRSEIDLLNIRREFIEKYDKSLHQAIEGDTSGDFLKALLALCGGED
modifications: C-terminal His tag
notes: recombinant human annexin A6 protein with C-terminal HIS tag (5186-A6-050, R&D systems); mouse protein from Northwestern core in one cohort
Q: How did the “FM 4-64 dye uptake” value turn out when B1 was run?
A: reduction

Q: What about the “annexin A6GFP repair cap size” value of the same molecule?
A: smaller; also recorded: reduced
